Laboratory results reported in patent publication US20160346281A1.

Biological target: Myc-tagged Abl (Abl-Myc), Drosophila Abl (Drosophila melanogaster) (UniProt P00522)
Assay: cell-based or functional assay

Chain of Myc-tagged Abl (Abl-Myc), Drosophila Abl (Drosophila melanogaster) (P00522 whole entry): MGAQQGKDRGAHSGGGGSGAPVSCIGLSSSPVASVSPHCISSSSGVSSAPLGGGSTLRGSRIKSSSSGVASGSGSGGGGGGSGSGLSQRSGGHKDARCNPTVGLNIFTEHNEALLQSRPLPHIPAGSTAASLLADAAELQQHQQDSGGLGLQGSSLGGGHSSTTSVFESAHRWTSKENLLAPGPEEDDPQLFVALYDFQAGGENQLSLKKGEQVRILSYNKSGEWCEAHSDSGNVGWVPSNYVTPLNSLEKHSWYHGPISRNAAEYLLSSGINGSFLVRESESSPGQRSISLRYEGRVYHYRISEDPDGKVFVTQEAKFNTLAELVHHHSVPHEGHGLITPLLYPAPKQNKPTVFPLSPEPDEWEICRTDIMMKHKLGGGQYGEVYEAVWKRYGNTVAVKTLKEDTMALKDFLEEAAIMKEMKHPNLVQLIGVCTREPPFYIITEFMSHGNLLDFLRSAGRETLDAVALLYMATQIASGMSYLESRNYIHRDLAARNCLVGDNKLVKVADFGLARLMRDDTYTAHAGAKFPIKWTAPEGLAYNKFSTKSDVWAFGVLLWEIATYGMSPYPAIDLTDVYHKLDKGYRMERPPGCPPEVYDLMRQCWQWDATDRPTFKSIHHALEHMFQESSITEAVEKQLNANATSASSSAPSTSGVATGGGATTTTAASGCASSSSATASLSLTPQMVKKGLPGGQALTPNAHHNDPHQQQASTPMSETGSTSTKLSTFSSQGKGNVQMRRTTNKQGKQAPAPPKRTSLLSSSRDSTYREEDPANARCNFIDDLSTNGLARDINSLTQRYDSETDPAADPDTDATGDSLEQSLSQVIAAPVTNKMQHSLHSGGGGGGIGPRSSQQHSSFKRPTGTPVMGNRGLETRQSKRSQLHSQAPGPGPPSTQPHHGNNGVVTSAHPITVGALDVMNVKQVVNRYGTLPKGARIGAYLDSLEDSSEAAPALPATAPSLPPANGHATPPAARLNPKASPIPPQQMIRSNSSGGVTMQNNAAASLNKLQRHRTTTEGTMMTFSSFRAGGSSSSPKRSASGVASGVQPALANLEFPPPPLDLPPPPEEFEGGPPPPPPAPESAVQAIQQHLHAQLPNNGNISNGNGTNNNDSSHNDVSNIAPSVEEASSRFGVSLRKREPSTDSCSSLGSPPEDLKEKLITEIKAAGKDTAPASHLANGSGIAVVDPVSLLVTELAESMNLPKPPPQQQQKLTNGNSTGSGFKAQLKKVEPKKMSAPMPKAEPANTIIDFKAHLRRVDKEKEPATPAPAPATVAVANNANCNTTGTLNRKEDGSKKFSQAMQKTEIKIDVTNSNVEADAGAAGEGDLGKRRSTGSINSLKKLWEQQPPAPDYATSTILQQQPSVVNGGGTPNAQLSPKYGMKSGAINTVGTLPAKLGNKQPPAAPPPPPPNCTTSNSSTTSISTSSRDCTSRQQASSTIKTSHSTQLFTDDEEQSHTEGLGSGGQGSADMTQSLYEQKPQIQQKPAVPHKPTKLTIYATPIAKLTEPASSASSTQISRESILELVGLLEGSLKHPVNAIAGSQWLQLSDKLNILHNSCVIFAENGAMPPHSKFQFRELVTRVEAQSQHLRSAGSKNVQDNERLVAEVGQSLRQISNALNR

Substance: GFP-tagged Dscam (Dscam[3.36.25.2]::GFP) (receptor)
- Abl kinase activation (anti-phospho-Y412-Abl blot intensity normalized to total Abl-Myc, S2 cell lysates): 2.6 fold
